According to publication PMC3843637 (Science signaling, 2013):
Values joined by “and” are separate entries in the source; they are usually repeats but may differ in a detail not shown here. Identical values can stand only once.

T1: PPM1A (human, UniProt P35813 1-382)
T1 sequence (looked up): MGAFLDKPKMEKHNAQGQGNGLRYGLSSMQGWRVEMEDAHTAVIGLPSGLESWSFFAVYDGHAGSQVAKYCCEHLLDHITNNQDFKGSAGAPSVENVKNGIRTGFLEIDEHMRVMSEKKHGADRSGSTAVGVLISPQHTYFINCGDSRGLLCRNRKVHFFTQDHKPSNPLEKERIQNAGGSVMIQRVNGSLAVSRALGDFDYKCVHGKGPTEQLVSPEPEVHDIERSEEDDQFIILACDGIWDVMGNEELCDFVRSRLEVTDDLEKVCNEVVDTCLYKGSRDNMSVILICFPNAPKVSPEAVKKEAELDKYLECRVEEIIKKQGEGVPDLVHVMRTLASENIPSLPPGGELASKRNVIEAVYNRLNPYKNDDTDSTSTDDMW

B1: S2LMH2EEE Y366A-W368A (domain or fragment)
chain: not shown
B2: MAN1 fragment from amino acids 755 to 911 (MAN1Luhm) (domain or fragment, human, UniProt Q9Y2U8 755-911, looked up)
chain: DKILVIPSKVWQGQAFHLDRRNSPPNSLTPCLKIRNMFDPVMEIGDQWHLAIQEAILEKCSDNDGIVHIAVDKNSREGCVYVKCLSPEYAGKAFKALHGSWFDGKLVTVKYLRLDRYHHRFPQALTSNTPLKPSNKHMNSMSHLRLRTGLTNSQGSS

Columns and labels:
SEC = target: the molecule itself; assay: SEC
PPM1A = target: T1, PPM1A; assay: NMR titration
S2LMH2EEE Y366A-W368A = target: B1; assay: ITC
[1] = target: S2LMH2EEE/S4LMH2 heterotrimer (human, UniProt Q15796 186-467; Q13485 273-552, SSMS to EEME); assay: ITC

Binder | binding result (SEC) | binding result (PPM1A) | Kd (S2LMH2EEE Y366A-W368A) | dH (S2LMH2EEE Y366A-W368A) | Kd [1] | dH [1]
B1 | binds | – | – | – | – | –
B2 | – | binds | 37.9 µM and 33.9 µM | -1.6 kcal/mol and -1.4 kcal/mol | 1.25 µM and 1.3 µM | -8.4 kcal/mol
